According to patent US20170037146A1 (GENOR BIOPHARMA, published 2017):

Target: T1, Human HER2 antigen (Sino Biological Inc., catalog number 10004-H08H) (human, UniProt P04626 23-652)
T1 construct: Bought antigen coated on the ELISA plate
Assay: ELISA on coated human HER2 antigen, anti-human IgG Fc-HRP detection
Method: Human HER2 antigen (purchased from Sino Biological Inc., catalog number: 10004-H08H) was diluted to 1 μg/ml using PBS buffer, and added to an ELISA plate at 100 μl/well to perform coating at 4° C. overnight. The plate was washed with PBST for four times, then 5% BSA (purchased from Amresco, USA, catalog number: 0332-100g, the solution being PBS) was added at 300 μl/well to perform blocking at room temperature for 1 hour. […] Each of the dilutions was added to an ELISA plate at 100 μl/well and incubated at room temperature for 1 hour. The plate was washed with PBST for four times, then HRP-labeled goat anti-human IgG Fc antibody (purchased from CalBiochem Inc., USA, catalog number: AP113A-K) was diluted at 1:10000 with PBS buffer, and added to the ELISA plate at 100 μl/well to perform incubation at room temperature for 1 hour. The plate was washed with PBST for four times, then a solution of 3,3′,5,5′-tetramethylbenzidine substrate (purchased from Tiangen Co., Ltd., catalog number: PA107-01) was added at 100 μl/well to perform incubation at room temperature for 15 minutes for visualization. A stop solution (1 M sulfuric acid) was added at 50 μl/well, and absorbance value was read at 450/630 nm wavelength on an M5 multi-functional ELISA plate (Molecular Devices Inc., USA).

Row | binding result | Binder
1 | binds | GB235-019 recombinant full-length IgG1 isotype antibody (wild type) (antibody, V domains shown, N-linked glycan at Asn73 (Fab framework region 3), Full-length IgG1 expressed in FreeStyle 293F cells; Derived from scFv clone WG1-019; also called GB235-019WT; GB235-019 wild-type antibody) VH: EVQLVQSGAEVKKPGAPVKVSCKASGYTFTSYDINWVRQATGQGLEWMGWMNPNSGNTGYAQKFQGRVTMTRNTSISTAYMELSSLRSEDTAVYYCARGYYLSRGDFWGQGTLVTVSS VL: DIQMTQSPSSVSASVGDRVTITCRASQGISSWLAWYQQKPGKAPKLLIYAASSLQSGVPSRFSGSGSGTDFTLTISSLQPEDFATYYCQQANSFPLTFGGGTKVEIKR
2 | binds | GB235-019S75A mutated antibody (antibody, human IgG1, kappa, V domains shown, full-length IgG1; also called GB235-019575A) VH: EVQLVQSGAEVKKPGAPVKVSCKASGYTFTSYDINWVRQATGQGLEWMGWMNPNSGNTGYAQKFQGRVTMTRNTAISTAYMELSSLRSEDTAVYYCARGYYLSRGDFWGQGTLVTVSS VL: DIQMTQSPSSVSASVGDRVTITCRASQGISSWLAWYQQKPGKAPKLLIYAASSLQSGVPSRFSGSGSGTDFTLTISSLQPEDFATYYCQQANSFPLTFGGGTKVEIKR
3 | binds | GB235-019N73D mutated antibody (antibody, human IgG1, kappa, V domains shown, full-length IgG1) VH: EVQLVQSGAEVKKPGAPVKVSCKASGYTFTSYDINWVRQATGQGLEWMGWMNPNSGNTGYAQKFQGRVTMTRDTSISTAYMELSSLRSEDTAVYYCARGYYLSRGDFWGQGTLVTVSS VL: DIQMTQSPSSVSASVGDRVTITCRASQGISSWLAWYQQKPGKAPKLLIYAASSLQSGVPSRFSGSGSGTDFTLTISSLQPEDFATYYCQQANSFPLTFGGGTKVEIKR
4 | binds | GB235-019N73Q mutated antibody (antibody, human IgG1, kappa, V domains shown, full-length IgG1) VH: EVQLVQSGAEVKKPGAPVKVSCKASGYTFTSYDINWVRQATGQGLEWMGWMNPNSGNTGYAQKFQGRVTMTRQTSISTAYMELSSLRSEDTAVYYCARGYYLSRGDFWGQGTLVTVSS VL: DIQMTQSPSSVSASVGDRVTITCRASQGISSWLAWYQQKPGKAPKLLIYAASSLQSGVPSRFSGSGSGTDFTLTISSLQPEDFATYYCQQANSFPLTFGGGTKVEIKR
